Kd data for 9 sequences are collected here from the Immune Epitope Database (IEDB).

One assay concerns the target HLA-B*40:01. Description: IEDB peptide-MHC binding, purified MHC/competitive/fluorescence; filed as Kd, often an IC50 or EC50 that approximates it; ≥ and ≤ were set here for values at or beyond the usual limits of such assays.
For assay [1], the target named is HLA-B*15:01. Description: IEDB peptide-MHC binding, purified MHC/direct/fluorescence; filed as Kd, often an IC50 or EC50 that approximates it; ≥ and ≤ were set here for values at or beyond the usual limits of such assays. The settings on record: source organism: Mycobacterium tuberculosis variant bovis.
The next assay deals with HLA-B*35:01. Nature of the assay: IEDB peptide-MHC binding, purified MHC/competitive/fluorescence; filed as Kd, often an IC50 or EC50 that approximates it; ≥ and ≤ were set here for values at or beyond the usual limits of such assays.
Assay [2] deals with HLA-B*08:01. Described as above. The settings on record: source organism: Shigella flexneri 5 str. 8401.
Another assay has as its target HLA-B*51:01. Described as above.
In assay [3] the target is HLA-B*15:01. The assay is described as above.
A further assay has as its target HLA-B*39:01. Described as above.
Assay [4] deals with HLA-B*08:01. Description: IEDB peptide-MHC binding, purified MHC/direct/fluorescence; filed as Kd, often an IC50 or EC50 that approximates it; ≥ and ≤ were set here for values at or beyond the usual limits of such assays. The settings on record: source organism: Listeria monocytogenes serotype 4b str. H7858.
Another assay deals with HLA-B*08:03. The assay is described as above. The settings on record: source organism: Listeria monocytogenes serotype 4b str. H7858.
A further assay concerns the target HLA-B*08:02. Described as above. To be noted: source organism: Listeria monocytogenes serotype 4b str. H7858.
The target in assay [5] is HLA-A*02:03. Description: IEDB peptide-MHC binding, purified MHC/competitive/fluorescence; filed as Kd, often an IC50 or EC50 that approximates it; ≥ and ≤ were set here for values at or beyond the usual limits of such assays. The settings on record: source organism: Homo sapiens.
Assay [6] concerns the target HLA-A*68:02. The description is as above. To be noted: source organism: Homo sapiens.
In assay [7] the target is HLA-A*02:16. The description is as above. To be noted: source organism: Homo sapiens.
The target of assay [8] is HLA-A*29:02. The description is as above. The settings on record: source organism: Homo sapiens.
In a further assay the target is HLA-B*46:01. Described as above.
A further assay has as its target HLA-B*15:17. The assay is described as above.
For the next assay, the target named is HLA-B*27:03. The description is as above.
Assay [9] concerns the target HLA-A*02:12. The description is as above. The settings on record: source organism: Homo sapiens.
A further assay addresses HLA-A*02:01. The description is as above.
Another assay has as its target HLA-A*69:01. Described as above.
For assay [10], the target named is HLA-A*02:19. The assay is described as above. To be noted: source organism: Homo sapiens.
The next assay deals with HLA-A*01:01. Described as above.
The target in assay [11] is HLA-A*03:01. The assay is described as above. To be noted: source organism: Homo sapiens.
In assay [12] the target is HLA-A*02:11. The assay is described as above. The settings on record: source organism: Homo sapiens.
Assay [13] concerns the target HLA-A*24:03. The description is as above. To be noted: source organism: Homo sapiens.
For another assay, the target named is HLA-A*26:01. The description is as above.
Assay [14] concerns the target HLA-A*02:03. Description: IEDB peptide-MHC binding, purified MHC/direct/fluorescence; filed as Kd, often an IC50 or EC50 that approximates it; ≥ and ≤ were set here for values at or beyond the usual limits of such assays. The settings on record: source organism: Orthohantavirus tulaense.
The target in assay [15] is HLA-A*68:02. The assay is described as above. The settings on record: source organism: Orthohantavirus tulaense.
Assay [16] concerns the target HLA-A*02:16. The assay is described as above. The settings on record: source organism: Orthohantavirus tulaense.
The target of assay [17] is HLA-A*29:02. The description is as above. The settings on record: source organism: Orthohantavirus tulaense.
For assay [18], the target named is HLA-A*02:12. The assay is described as above. The settings on record: source organism: Orthohantavirus tulaense.
The target of assay [19] is HLA-A*02:19. The assay is described as above. The settings on record: source organism: Orthohantavirus tulaense.
The target in the next assay is HLA-A*23:01. The description is as above. To be noted: source organism: Orthohantavirus tulaense.
For assay [20], the target named is HLA-A*03:01. The description is as above. The settings on record: source organism: Orthohantavirus tulaense.
The target of assay [21] is HLA-A*02:11. The description is as above. To be noted: source organism: Orthohantavirus tulaense.
For assay [22], the target named is HLA-A*24:03. The assay is described as above. The settings on record: source organism: Orthohantavirus tulaense.
In the next assay the target is HLA-B*57:01. Nature of the assay: IEDB peptide-MHC binding, purified MHC/competitive/fluorescence; filed as Kd, often an IC50 or EC50 that approximates it; ≥ and ≤ were set here for values at or beyond the usual limits of such assays. The settings on record: source organism: Orthohantavirus tulaense.
For the next assay, the target named is HLA-B*18:01. The description is as above. To be noted: source organism: Orthohantavirus tulaense.
Setting [23] is: source organism: Shigella flexneri 5 str. 8401.
The mark [24] stands for this setting: source organism: Escherichia coli.
[25] abbreviates: source organism: Orthohantavirus tulaense.

As usually defined, the Kd is the constant that tells how readily two partners part at equilibrium.

Sequence EEISSIISL came in with a Kd with HLA-B*40:01 (source organism: Bacillus anthracis str. A2012) of 0.0023 µM.

Regarding ELNITSATY, the results for the Kd with HLA-B*15:01 [1] and with HLA-B*35:01 (source organism: Mycobacterium tuberculosis variant bovis) were 0.459 µM and 0.0182 µM, respectively.

With LPRRLQLLF, the results for the Kd with HLA-B*08:01 [2], in the assay with HLA-B*51:01 (setting [23]) and with HLA-B*35:01 (setting [23]) were 4 µM, 2.64 µM and 0.0029 µM, respectively.

On to LQEEMAETL, for which the Kd in the assay with HLA-B*15:01 [3] (setting [24]) is not below 20 µM; with HLA-B*40:01 (setting [24]), 0.866 µM; with HLA-B*39:01 (setting [24]), 0.108 µM.

Regarding QATAQAAAY, the figures for the Kd in the assay with HLA-B*15:01 [1] and in the assay with HLA-B*35:01 (source organism: Mycobacterium tuberculosis C) were 6.05 µM and 0.0145 µM, respectively.

Take QMKRRILSF: the results for the Kd with HLA-B*08:01 [4], with HLA-B*08:03 and with HLA-B*08:02 were 0.009 µM, 0.095 µM and 0.057 µM, respectively.

For the sequence REWSGLNYL, in the assay with HLA-B*40:01 (source organism: Salmonella enterica subsp. enterica serovar Typhi), the Kd turned out to be 0.0033 µM.

As for SSDLRSWTF, the Kd with HLA-A*02:03 [5], with HLA-A*68:02 [6], with HLA-A*02:16 [7], with HLA-A*29:02 [8], with HLA-B*46:01 (source organism: Homo sapiens) and with HLA-B*15:17 (source organism: Homo sapiens) was not below 20 µM throughout. For the same sequence, the Kd with HLA-B*27:03 (source organism: Homo sapiens), in the assay with HLA-A*02:12 [9], in the assay with HLA-B*51:01 (source organism: Homo sapiens), with HLA-A*02:01 (source organism: Homo sapiens), with HLA-A*69:01 (source organism: Homo sapiens) and with HLA-A*02:19 [10] was not below 20 µM each time. For the same sequence, the Kd with HLA-A*01:01 (source organism: Homo sapiens) was 0.538 µM; with HLA-B*15:01 [3] (source organism: Homo sapiens) it was not below 20 µM; in the assay with HLA-A*03:01 [11], not below 20 µM; with HLA-A*02:11 [12], not below 20 µM; in the assay with HLA-A*24:03 [13] it was not below 20 µM; in the assay with HLA-B*39:01 (source organism: Homo sapiens), not below 20 µM. The Kd with HLA-A*26:01 (source organism: Homo sapiens) was not below 20 µM.

For VVDALRNIY, the Kd with HLA-A*02:03 [14], with HLA-A*68:02 [15], with HLA-A*02:16 [16], in the assay with HLA-A*29:02 [17], with HLA-A*02:12 [18] and in the assay with HLA-A*02:19 [19] was not below 20 µM each time. For the same sequence, the Kd in the assay with HLA-A*23:01, in the assay with HLA-A*03:01 [20], with HLA-A*02:11 [21], with HLA-A*24:03 [22], with HLA-B*46:01 (setting [25]) and with HLA-B*15:17 (setting [25]) was not below 20 µM throughout. The Kd in the assay with HLA-B*27:03 (setting [25]) was not below 20 µM; in the assay with HLA-B*57:01, not below 20 µM; with HLA-B*51:01 (setting [25]) it was not below 20 µM; with HLA-A*02:01 (setting [25]), not below 20 µM; in the assay with HLA-A*69:01 (setting [25]) it was not below 20 µM; in the assay with HLA-A*01:01 (setting [25]) it was 0.0063 µM. Besides, the Kd with HLA-B*18:01, in the assay with HLA-B*39:01 (setting [25]) and with HLA-A*26:01 (setting [25]) was not below 20 µM in each case.
